Measurements from patent US20250313648A1, “Binders of Chondroitin Sulfate Proteoglycan (CSPG4) Polypeptides” (Regents of the University of Minnesota, priority 2021, published 2025).

Key:
[1] = system: EOC cells (HEY, A2780, ES-2); assay: Spheroid formation / cell growth assay in 1% methylcellulose with antibody; format: cell-based, human; conditions: CSPG4 expressing mock transfected EOC cells, 50 μg/ml antibody
Protocol: (§1) FIGS. 10A-10D. Anti-CSPG4 antibody 7H5A2 inhibits Zeb1 expression and FAK activation, cell invasion and spheroid formation. FIG. 10A) Western blot for pFAK, FAK, and ZEB1 in EOC cells plated in 1% methylcellulose in the presence of 50 μg/ml normal mouse IgG1 (nmIgG1) or anti-CSPG4 antibody 7H5A2 cultured in suspension for 24 hours. FIG. 10B) Invasion assay using HEY cells pre-incubated with control (nm IgG1) or anti-CSPG4 (763.74 and 7H5A2) antibodies at 50 μg/ml for 2 hours and then plated in invasion chambers in the presence of the antibody in the top chamber only for 24 hours. Bars represent the total number of invading cells counted in five random fields/well from duplicate wells, +/−S.D. P values determined by student's t-test with Welch's correction. n=6 from 3 separate experiments. FIG. 10C) Cell growth assay using EOC cells plated in the presence of the indicated antibodies at 50 μg/ml in 1% methylcellulose for 7 days (HEY) or 14 days (A2780 and ES-2). Cells were collected from methylcellulose culture at those time points, and re-plated overnight in normal growth media in tissue culture plates. The following day all cells were collected from each well and counted. P values determined by student's t-test with Welch's correction, comparing live cell numbers (determined by trypan blue exclusion) from each condition, n=4. […]

[2] = system: FAK activation and ZEB1 expression in EOC cells; assay: Western blot for pFAK, FAK and ZEB1 in EOC cells plated in 1% methylcellulose with antibody; format: cell-based, human; conditions: 50 μg/ml antibody vs normal mouse IgG1, suspension culture 24 hours, all three cell lines
Protocol: as §1

HEY cells = assay: Matrigel invasion assay with antibody pre-incubation; format: cell-based, human; conditions: 50 μg/ml antibody, 2 hours pre-incubation, 24 hours, inhibition greater than with antibody 763.74
Protocol: as §1

CSPG4 = target: T1, CSPG4 (Homo sapiens, UniProt Q6UVK1); assay: Specificity of antibody by western blot of CSPG4 wild type and knockout cell lysates and immunofluorescence cell staining; format: binding; conditions: western blot of mock and CSPG4-CRISPR cell lines; immunofluorescence of HEY parent cells
T1 construct: screening against CSPG4 wild type and knockout cell lysates via western blot and cell staining via immunofluorescence; endogenous in cells; host or cells: HEY, ES-2 and A2780 human ovarian cancer cell lines (parent/mock cells, with CSPG4-CRISPR knockouts as negative control)
T1 sequence (Q6UVK1 30-2322): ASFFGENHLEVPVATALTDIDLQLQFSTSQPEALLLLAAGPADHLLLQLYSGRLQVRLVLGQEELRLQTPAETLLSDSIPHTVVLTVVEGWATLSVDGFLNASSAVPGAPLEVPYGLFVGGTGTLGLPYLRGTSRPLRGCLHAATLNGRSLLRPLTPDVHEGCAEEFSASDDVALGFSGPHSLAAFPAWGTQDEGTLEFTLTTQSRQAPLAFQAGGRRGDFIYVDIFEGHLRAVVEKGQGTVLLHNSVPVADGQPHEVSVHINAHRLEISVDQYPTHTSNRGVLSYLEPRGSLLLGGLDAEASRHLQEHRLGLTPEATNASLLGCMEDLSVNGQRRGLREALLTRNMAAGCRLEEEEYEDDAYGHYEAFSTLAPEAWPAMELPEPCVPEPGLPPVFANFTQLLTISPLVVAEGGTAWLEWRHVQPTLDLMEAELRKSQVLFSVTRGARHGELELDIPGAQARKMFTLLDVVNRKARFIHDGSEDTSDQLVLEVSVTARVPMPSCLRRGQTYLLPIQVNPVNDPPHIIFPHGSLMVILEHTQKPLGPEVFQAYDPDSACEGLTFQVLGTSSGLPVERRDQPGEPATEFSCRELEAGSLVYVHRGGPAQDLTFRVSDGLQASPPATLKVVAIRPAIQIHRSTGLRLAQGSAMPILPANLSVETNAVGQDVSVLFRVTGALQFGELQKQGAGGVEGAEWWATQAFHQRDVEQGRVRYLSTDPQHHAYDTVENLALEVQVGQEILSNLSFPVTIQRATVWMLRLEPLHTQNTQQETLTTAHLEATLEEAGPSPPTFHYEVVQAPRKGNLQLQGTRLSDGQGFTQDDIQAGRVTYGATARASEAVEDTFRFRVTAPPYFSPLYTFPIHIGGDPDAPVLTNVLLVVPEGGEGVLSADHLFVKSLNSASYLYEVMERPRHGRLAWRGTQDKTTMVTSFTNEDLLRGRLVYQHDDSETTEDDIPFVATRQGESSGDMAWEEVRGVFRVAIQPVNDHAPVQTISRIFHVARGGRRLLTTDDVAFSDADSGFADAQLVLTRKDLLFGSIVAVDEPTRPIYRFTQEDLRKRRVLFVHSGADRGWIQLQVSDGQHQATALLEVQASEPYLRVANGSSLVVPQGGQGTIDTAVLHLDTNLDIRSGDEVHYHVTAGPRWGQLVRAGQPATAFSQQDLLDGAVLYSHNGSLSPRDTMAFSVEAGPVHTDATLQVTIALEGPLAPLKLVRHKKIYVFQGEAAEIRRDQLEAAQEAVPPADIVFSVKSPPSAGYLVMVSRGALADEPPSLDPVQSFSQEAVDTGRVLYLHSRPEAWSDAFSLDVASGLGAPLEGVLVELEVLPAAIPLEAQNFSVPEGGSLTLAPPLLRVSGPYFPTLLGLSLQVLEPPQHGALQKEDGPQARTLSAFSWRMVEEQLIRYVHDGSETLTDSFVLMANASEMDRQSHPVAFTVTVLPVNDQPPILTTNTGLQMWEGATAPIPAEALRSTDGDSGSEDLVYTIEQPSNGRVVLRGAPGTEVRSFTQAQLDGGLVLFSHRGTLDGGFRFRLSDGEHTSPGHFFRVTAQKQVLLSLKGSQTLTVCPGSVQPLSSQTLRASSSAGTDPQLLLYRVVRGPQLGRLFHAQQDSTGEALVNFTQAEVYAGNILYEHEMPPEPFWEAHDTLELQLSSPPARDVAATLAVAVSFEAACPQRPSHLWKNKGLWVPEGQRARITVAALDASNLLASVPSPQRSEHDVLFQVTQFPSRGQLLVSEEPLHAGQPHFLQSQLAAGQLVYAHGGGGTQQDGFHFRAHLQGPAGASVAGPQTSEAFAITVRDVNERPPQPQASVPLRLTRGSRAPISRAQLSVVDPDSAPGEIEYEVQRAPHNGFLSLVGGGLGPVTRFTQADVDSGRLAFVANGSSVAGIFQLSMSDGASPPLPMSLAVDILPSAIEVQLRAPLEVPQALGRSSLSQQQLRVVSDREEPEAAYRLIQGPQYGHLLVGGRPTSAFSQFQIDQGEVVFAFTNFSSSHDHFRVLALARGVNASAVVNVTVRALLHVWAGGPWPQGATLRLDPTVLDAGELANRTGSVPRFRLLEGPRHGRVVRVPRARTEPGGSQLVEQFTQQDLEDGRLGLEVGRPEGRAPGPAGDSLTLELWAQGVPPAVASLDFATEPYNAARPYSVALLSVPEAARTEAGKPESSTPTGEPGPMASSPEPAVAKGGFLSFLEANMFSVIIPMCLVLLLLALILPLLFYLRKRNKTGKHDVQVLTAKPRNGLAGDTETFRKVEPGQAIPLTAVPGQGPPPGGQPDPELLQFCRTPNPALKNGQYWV
Protocol: FIGS. 1A-1D. Antibody 7H5A2 targets CSPG4. FIG. 1A) Amino acid sequence of recombinant protein target used to generate antibody 7H5A2 (SEQ ID NO:34). Black text denotes CSPG4 region (SEQ ID NO:33), the lighter gray text corresponds to human FC sequence for protein purification. […]) Western blot with CSPG4 antibodies 763.74 (FIG. 1B) and 7H5A2 (FIG. 1C). Cells are harvested in lysis buffer and 40 μg protein was loaded in each well from the indicated mock and CSPG4-CRISPR cell lines. Alpha-tubulin is included as a loading control. FIG. 1D) Immunofluorescence staining of HEY parent cells with antibody 7H5A2. Red bar=10 μm. Magnification 600×.
Western blot: Western blots were performed using standard methods as described previously by Yang, et al., Cancer Res. 69(19):7538-47 (2009). […]
Generation of novel CSPG4 antibody: CSPG4-specific mouse monoclonal antibody 7H5A2 was generated by Promab Biotechnologies Inc (Richmond, CA) by injection of a recombinant CSPG4 protein immunogen corresponding to aa 1538-2221 of the CSPG4 core protein extracellular domain, expressed and purified from a eukaryotic expression system (see FIG. 1A). The specificity of the antibody was determined by screening against CSPG4 wild type and knockout cell lysates via western blot and cell staining via immunofluorescence (see FIGS. 1B and 1C). […]

B1: 7H5A2: CSPG4-specific mouse monoclonal antibody, isotype IgG1; heavy chain variable SEQ ID NO:8, light chain variable SEQ ID NO:16 (antibody, V domains shown)
VH: QVQLQQSGAELVRPGSSVKISCKASGFAFSNYWMNWVKQRPGQGLEWIGQIFPGDGDTNYNGKFKGKATLTADKSSSTAYMQLISLTSEDSAVYFCVRESDWGRGTTLTVSS
VL: DIQMTQTTSSLSASLGDRVTISCSASQGINNYLNWYQQTPDGTVKLLIFYTSSLQSGVPSRFSGSGSGTDYSLTISNLEPEDIATYYCQQYSKLPFTFGSGTKLEIKR
spheroid formation ([1]; 7 days (HEY) or 14 days (A2780 and ES-2)): significantly inhibited
EOC cell survival ([1]; live cell numbers by trypan blue exclusion): significantly inhibited
ZEB1 expression [2]: inhibited
activation of FAK [2]: inhibited
EOC invasion (HEY cells): significantly inhibited
recognition of CSPG4 on the cell surface (CSPG4): specifically recognizes CSPG4 on the cell surface
